The values that follow come from US20070105771A1 (Y S THERAPEUTICS, published 2007).

Several values for one entry are separate records, joined by “and”; a condition that tells them apart may be missing. Equal entries are not always repeated. Some results are limits rather than exact numbers.

In assay [1] the target is T1, Purified recombinant human CD26 (rhDipeptidyl peptidase IV), R&D Systems CAT #1180-SE (human, UniProt P27487 29-766).
T1 construct: Bought recombinant protein; also called hu-CD26; soluble human CD26
In words: SPR (Biacore), CD26 preoccupied by the Fab; competitor 14D10 ascites. The text has this:
A specificity analysis of selected Fabs comprising pairs of variant VH and VL sequences was done. […] The analysis was done using Biacore® as described in Example 1.
Background: Surface plasmon resonance follows binding to a sensor surface in real time, without labels.

For assay [2], the target named is T1, Purified recombinant human CD26 …. In words: SPR (Biacore), Fab.
The target is the same in assay [3]. Briefly: SPR (Biacore), Fab. How it is done:
(§1) Fabs produced in E. coli as described below were diluted in PBS in a concentration of ˜0.5 μM for the assay. A typical recording included a 3 minute period of injection of the Fab followed by a period of 15 minutes of dissociation, and analysis was performed based on the raw data of the binding curves accordingly.
The CD26 binding partner was as shown below.
The source holds these as a separate data set.

For assay [4] the target is unchanged. In words: SPR (Biacore), Fab. Here is the method: as §1
The source holds these as a separate data set.

Assay [5] shares this target. Briefly: SPR (Biacore), Fab. This is another data set of the same source.
Assay [6] shares this target. Briefly: SPR (Biacore), CD26 on CM5 chip, Fab injected. How it is done: as §1

T1 sequence (P27487 29-766 limits assumed): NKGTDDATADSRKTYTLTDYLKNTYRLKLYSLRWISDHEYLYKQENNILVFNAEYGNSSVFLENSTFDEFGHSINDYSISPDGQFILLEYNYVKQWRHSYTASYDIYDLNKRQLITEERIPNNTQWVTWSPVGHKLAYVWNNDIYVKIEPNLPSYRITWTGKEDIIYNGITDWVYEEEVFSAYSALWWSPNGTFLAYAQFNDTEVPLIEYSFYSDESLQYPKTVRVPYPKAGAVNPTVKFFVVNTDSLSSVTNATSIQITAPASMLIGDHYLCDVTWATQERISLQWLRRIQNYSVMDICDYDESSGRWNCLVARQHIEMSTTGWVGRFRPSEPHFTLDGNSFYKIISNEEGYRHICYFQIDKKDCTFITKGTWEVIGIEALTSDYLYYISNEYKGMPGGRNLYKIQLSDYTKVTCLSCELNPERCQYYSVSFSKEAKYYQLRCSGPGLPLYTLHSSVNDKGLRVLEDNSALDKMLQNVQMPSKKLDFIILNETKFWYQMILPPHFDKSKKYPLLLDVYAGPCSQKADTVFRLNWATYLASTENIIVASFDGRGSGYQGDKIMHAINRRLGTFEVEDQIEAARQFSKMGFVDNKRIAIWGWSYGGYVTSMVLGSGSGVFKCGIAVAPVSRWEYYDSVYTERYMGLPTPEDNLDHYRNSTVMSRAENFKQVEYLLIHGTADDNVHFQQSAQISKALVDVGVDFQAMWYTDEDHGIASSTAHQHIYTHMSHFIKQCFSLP

B1: CM03 Fab X369 (Fab, V domains shown)
VH: QVKLQESGPGLVQPSQTLSITCTVSGFSLTTYGVHWVRQSPGKGLEWLGVIWGGGRTDYDAAFISRLSISKDNSKSQVFFKMNSLQANDTAIYYCVRNRHDWFDYWGQGTTVTVSS
VL: DIQMTQSPSSLSASLGDRVTITCSASQGIRNSLNWYQQKPDGAVKLLIYYSSNLHSGVPSRFSGSGSGTDFSLTISNLEPEDIATYYCQQSIKLPFTFGSGTKLEIK
notes: Recombinant Fab made in E. coli; also called CM03 X369; CM03 (X369)
The term Kd denotes the equilibrium constant for the complex coming apart. For B1, in assay [1], the “percent decrease in binding of 14D10 to CD26” value is no less than 80%. Also, the equilibrium dissociation constant (Kd) in assay [2] is 1.63 nM and 1.6 nM; in assay [3], 1.63 nM; in assay [4] it was 1.63 nM; in assay [5], 1.63 nM; in assay [6], 1.63 nM.
